Measurements reported in patent US20240109962A1 (SPARX BIOSCIENCE, published 2024).

Tests used:
[1] = target: LILRB2 antigen of the ELISA of Table 5 (format not specified) (UniProt Q8N423 22-460, limits assumed); experiment: ELISA, antibody titration
[2] = target: T1, human LILRB1 expressed on 293T cells (human, UniProt Q8NHL6 24-650); experiment: cell ELISA on fixed 293T transfectants, OD490
T1 construct: whole, on cells
Procedure: (§1) The cells were then immobilized with glutaraldehyde in the presence of 5% defatted milk at room temperature for 2 hours. An anti-LILRB2 antibody (2 μg/ml) was added to each well and incubated at room temperature for 2 hours. An HRP-labelled goat anti-mouse secondary antibody was then added into each well and incubated at room temperature for one hour. An HRP substrate, o-phenylenediamine dihydrochloride (OPD) was then added to each well. The plate was incubated at room temperature for 15 min to allow color development and OD₄₉₀ values were determined.

[3] = target: T2, His-tagged human LILRB2 polypeptide (human, UniProt Q8N423 22-460); experiment: SPR, antibody on CM5 chip, His-LILRB2 analyte, 1:1 model
T2 construct: SPR analyte; also called His-tagged human LILBR2 polypeptide; not shown: His tag
Procedure: Surface plasmon resonance (SPR) was used to examine binding activities of exemplary anti-LILBR2 antibodies disclosed herein. Briefly, the anti-LILBR2 antibody was diluted in a coating buffer to a concentration of 30 μg/ml, loaded onto CM5 chips at 10 μl/min to allow coating of the antibody on the surface of the CM5 chip. […] Binding affinity was measured based on the 1:1 binding model.

[4] = target: T1, human LILRB1 expressed on 293T cells; experiment: flow cytometry on 293T transfectants, MFI
Procedure: (§2) The cells were then immobilized with glutaraldehyde in the presence of 5% defatted milk at room temperature for 2 hours. An anti-LILRB2 antibody (5 μg/ml) was added to each well and incubated at room temperature for 1 hours. An Alex Flour®-labelled goat anti-mouse secondary antibody (1:2,000 dilution) was then added into each well and incubated at room temperature for 30′. The cells were washed twice with PBS after the staining. Fluorescence intensities (MFI) were measured.

[5] = target: T3, human LILRB3 expressed on 293T cells (human, UniProt O75022 24-631); experiment: flow cytometry on 293T transfectants, MFI
T3 construct: whole, on cells
Procedure: as §2

LILRB1-His = target: T4, LILRB1-His; experiment: ELISA on recombinant His-tagged protein, OD450
T4 construct: also called His-tagged LILRB1; recombinant LILRB1 protein

LILRB3-His = target: T5, LILRB3-His; experiment: ELISA on recombinant His-tagged protein, OD450
T5 construct: also called His-tagged LILRB3; recombinant LILRB3 protein

[6] = target: T3, human LILRB3 expressed on 293T cells; experiment: cell ELISA on fixed 293T transfectants, OD490
Procedure: as §1

T4 sequence (chain, as listed by the source limits assumed): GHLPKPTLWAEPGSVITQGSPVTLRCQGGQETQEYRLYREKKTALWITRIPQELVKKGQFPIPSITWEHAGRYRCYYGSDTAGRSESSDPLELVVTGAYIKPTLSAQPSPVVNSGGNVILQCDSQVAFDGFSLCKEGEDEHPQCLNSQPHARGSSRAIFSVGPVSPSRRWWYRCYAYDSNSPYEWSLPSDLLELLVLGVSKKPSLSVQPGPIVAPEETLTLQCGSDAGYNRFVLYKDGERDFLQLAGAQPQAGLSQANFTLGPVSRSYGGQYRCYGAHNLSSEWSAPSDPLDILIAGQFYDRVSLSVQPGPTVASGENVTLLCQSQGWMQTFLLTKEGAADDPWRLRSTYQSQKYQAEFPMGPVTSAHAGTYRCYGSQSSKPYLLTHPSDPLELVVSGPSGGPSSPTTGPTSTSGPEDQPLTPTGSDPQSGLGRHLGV
T2 sequence (Q8N423 22-460 limits assumed): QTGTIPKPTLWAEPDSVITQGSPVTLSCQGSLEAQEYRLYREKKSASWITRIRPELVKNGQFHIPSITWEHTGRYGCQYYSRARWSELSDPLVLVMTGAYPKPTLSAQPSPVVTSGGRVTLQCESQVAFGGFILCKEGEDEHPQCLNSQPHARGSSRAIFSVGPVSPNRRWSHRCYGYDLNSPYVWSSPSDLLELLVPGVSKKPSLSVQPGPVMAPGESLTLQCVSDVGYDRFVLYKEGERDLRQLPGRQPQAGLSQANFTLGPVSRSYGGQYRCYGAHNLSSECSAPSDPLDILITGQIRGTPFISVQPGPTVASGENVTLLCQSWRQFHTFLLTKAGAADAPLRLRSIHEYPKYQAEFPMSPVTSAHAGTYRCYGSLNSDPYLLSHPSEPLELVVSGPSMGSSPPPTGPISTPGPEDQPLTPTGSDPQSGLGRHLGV
LILRB2 antigen of the ELISA of Table 5 (format not specified), sequence (Q8N423 22-460 limits assumed): as above
T1 sequence (Q8NHL6 24-650): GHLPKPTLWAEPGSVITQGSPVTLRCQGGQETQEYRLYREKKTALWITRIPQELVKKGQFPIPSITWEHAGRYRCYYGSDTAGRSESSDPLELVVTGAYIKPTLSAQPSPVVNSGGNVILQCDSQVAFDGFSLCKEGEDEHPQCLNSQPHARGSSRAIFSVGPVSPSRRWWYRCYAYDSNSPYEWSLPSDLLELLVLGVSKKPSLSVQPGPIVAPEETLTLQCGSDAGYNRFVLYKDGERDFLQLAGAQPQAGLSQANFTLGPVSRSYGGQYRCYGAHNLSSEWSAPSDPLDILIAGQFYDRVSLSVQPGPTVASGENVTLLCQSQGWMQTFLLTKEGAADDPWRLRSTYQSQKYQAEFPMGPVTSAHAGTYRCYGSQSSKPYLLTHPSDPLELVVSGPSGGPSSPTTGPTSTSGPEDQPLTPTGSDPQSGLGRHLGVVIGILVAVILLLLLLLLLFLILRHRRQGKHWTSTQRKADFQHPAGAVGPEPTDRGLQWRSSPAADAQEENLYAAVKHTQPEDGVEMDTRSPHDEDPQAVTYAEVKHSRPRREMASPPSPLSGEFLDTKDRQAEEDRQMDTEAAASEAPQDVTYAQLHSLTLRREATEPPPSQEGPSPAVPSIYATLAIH

B1: Antibody 15A6 (antibody, V domains shown)
VH: EVKLVESGGDLVKPGGSLKLSCAASGFTFSTYGMSWVRQTPEKRLEWVATISGSNSYTYYPDSVKGRFTISRDNAKNNLYLQMSSLRSEDTALYYCTRHENGYYFYAMDYWGQGTSVTVSS
VL: DVQITQSPSYLTASPGETITINCRSSKSITKYLAWYQEKPGKTNKLLIYSGSTLQSGIPSRFSGSGSGTDFTLTISSLEPEDFAMYYCQQHSEYPWTFGGGTRLEIK
notes: Mouse hybridoma mAb purified from ascites
For B1, the Kd [1] was 725 pM, the binding result [2] was “no binding (tested: 2 µg/ml)” and the Kd [3] was 5450 pM. For the same binder, the koff [3] was 0.00137 s⁻¹ and the kon [3] was 251000 M⁻¹ s⁻¹.

B2: Antibody 8A4 (antibody, V domains shown)
VH: QVQLKESGPGLVAPSQSLSITCTVSGFSLTDYGVNWVRQPPGKGLEWLGMIWGDGNTDYNSALKSRLSISKVNSKSQVFLKMNSLQTDDTARYYCARSSYRYDENIYYYAMDYWGQGTSVTVSS
VL: DIVMTQSPSSLTVTAGEEVTLSCKSSQSLLNSGIQKNYLTWYQQKPGQPPKLLIYWASTRESGVPDRFTGSVSGTDFTLTISSVQAEDLAVYYCQNDYSLPFTFGSGTKLEIK
notes: as for B1
In the case of B2, the Kd [1] is reported as 493 pM, the binding result [4] is reported as “no binding (tested: 5 µg/ml)” and the binding result [5] is reported as “no binding (tested: 5 µg/ml)”. The binding result (LILRB1-His) was “no binding”, the binding result (LILRB3-His) was “no binding” and the Kd [3] was 185 pM. It also gave a koff [3] of 0.000174 s⁻¹ and a kon [3] of 940000 M⁻¹ s⁻¹.

B3: Antibody 3C12 (antibody, V domains shown)
VH: QVQLKESGPGLVAPSQSLSITCTVSGFSLTSYGVHWVRQSPGKGLEWLGVIWAGGTTNYNSALMSRLSISKDNSKSQVFLKMNSLQADDTAMYYCARGGYGHSMDYWGQGTSVTVSS
VL: DIVMTQSHKFMSTSVGDRVSITCKASQDVSNAVAWYQQKPGQSPKLLIYSASYRYTGVPDRFTGSGSGTDFIFTISSVQAEDLAVYYCQQHYSTPFTFGSGTKLEIK
notes: as for B1
With B3 the Kd [1] was 5010 pM, the binding result [2] was “no binding (tested: 2 µg/ml)” and the binding result [6] was “no binding (tested: 2 µg/ml)”. B3: no binding (LILRB1-His); no binding (LILRB3-His).

B4: Antibody 6H8 (antibody, V domains shown)
VH: QIQLVQSGPELKKPGETVRISCKASGYTFTNYGMNWVKQAPGKGLKWMGWINTYTGEPTYADDFRGRFALSLEPSASTASLQINNLKNEDTATYFCARYYDYDYFDYWGQGTTLTVSS
VL: DIVMTQSPSSLRVSAGEKVTMSCKSSQSLLNGGNQKNYLAWYQQKPGQPPKVLIYGASTRVSGVPDRFTGRGSGIDFTLTISSVEAEDLAVYYCQNDLSYPLTFGAGTKLELK
notes: as for B1
In the case of B4, the Kd [1] is reported as 5700 pM, the binding result [2] is reported as “no binding (tested: 2 µg/ml)” and the binding result [6] is reported as “no binding (tested: 2 µg/ml)”. B4: no binding (LILRB1-His); no binding (LILRB3-His).

B5: Antibody 7C12 (antibody, V domains shown)
VH: EVQLQQSGPDLVKPGASVKISCKASGYIFTDFNMHWVKQSHGKSLEWIGYIYPFNGGTGYNQKFENMATLTVDISSSTAYMEVRSLTSEDSAVYYCARRGGRGHFDYWGQGTTLTVSS
VL: DIQMTQSPASLSASVGETVTVTCRASGNIHNYLAWYQQKQGKSPQLLVYNAKTLADGVPSRFSGSGSGIQFSLKINSLQPEDFGSYYCQHFWNTPFTFGSGTKLEIK
notes: as for B1
For B5, the Kd [1] was 631 pM, the binding result [2] was “no binding (tested: 2 µg/ml)” and the binding result [6] was “no binding (tested: 2 µg/ml)”. For the same binder, the Kd [3] was 792 pM, the koff [3] was 0.000209 s⁻¹ and the kon [3] was 263000 M⁻¹ s⁻¹.

B6: Antibody 2C1 (antibody, V domains shown)
VH: EVKLVEPGGGLVQPGGSLRLSCATSGFTFSDFYMGWVRQPPGKRLEWIAASGNKAHDYATEYSASVKGRFFVSRDTFQSILYLQMNALRAEDTAIYYCARSYYYGSSAWFTYWGQGTLVTVSV
VL: DIVMTQSHKFMSTSIRDRVTIACKASQDVGTAVAWYQQKPGQSPKLLIFWASTRHAGVPDRFTGSGSGTDFTLTISNVQSEDLTDYFCQQYSSYPLTFGAGTKLELK
notes: as for B1
B6: no binding (tested: 2 µg/ml) [2]; no binding (tested: 2 µg/ml) [6].
